Experimental findings from article PMC7141136, “Ohr and OhrR Are Critical for Organic Peroxide Resistance and Symbiosis in Azorhizobium caulinodans ORS571” are described below.

Data set [1] has as its target OhrR^C121S (Azorhizobium caulinodans ORS571). Nature of the data set: non-reducing SDS-PAGE; purified OhrR oxidised with 0.1 mM CuOOH for 10 min, then non-reducing SDS-PAGE; covalent dimer.
Data set [2] concerns the target OhrR (AZC_3555) of Azorhizobium caulinodans ORS571, 6×His-tagged recombinant protein (Azorhizobium caulinodans ORS571). Described as above.
In another data set the target is T1, OhrR (Azorhizobium caulinodans ORS571, UniProt A8IEZ4 1-144).
T1 sequence: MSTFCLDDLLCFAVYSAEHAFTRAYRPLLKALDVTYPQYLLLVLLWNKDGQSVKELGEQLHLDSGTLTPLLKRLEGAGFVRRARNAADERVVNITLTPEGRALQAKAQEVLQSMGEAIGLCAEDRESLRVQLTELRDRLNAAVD
Description: EMSA; reduced (2.5 mM DTT in buffer); dose-dependent; 50 mM Tris-HCl pH 8.3, 0.25 M KCl, 2.5 mM DTT, 5 mM MgCl2, 0.05 ug/mL poly(dI-dC), 2.5 mM EDTA, 1% glycerol; 20 nM DNA, 20 uL, 20 min, room temperature; 6% native PAGE in 0.5x TBE. The settings on record: protein: recombinant; tags: N-terminal 6xHis (pET-28a); chain copies: 2; label: none (GelRed stain). (In general: In EMSA bound probe runs differently from free probe, usually more slowly.)

On to OhrR^C121S (natural protein), for which the stoichiometry N (usually a count of units in the complex or per binding partner) in data set [1] was 2.

With “OhrR (AZC_3555) of Azorhizobium caulinodans ORS571, 6×His-tagged recombinant protein (natural protein)”, the stoichiometry N in data set [2] came out at 2.

B1: ohr promoter probe (181 bp) (dsDNA)
DNA 1: CAAAGGGTTAGTTTTCCGTTGCGGAAGGTTGGGTGATGTTGACGGTGGTCTGCAAAATAAGTTTGACACAATCAAATTGTGTGCTACTTAAATGGCCATGGAAGCGGCTTGGCCGTTTCTCATCGATTTCTCAAGGCACGAGGATCAAGCGATGTCCGTCGATGTGAAGTACACCACCAAG
DNA 2: CTTGGTGGTGTACTTCACATCGACGGACATCGCTTGATCCTCGTGCCTTGAGAAATCGATGAGAAACGGCCAAGCCGCTTCCATGGCCATTTAAGTAGCACACAATTTGATTGTGTCAAACTTATTTTGCAGACCACCGTCAACATCACCCAACCTTCCGCAACGGAAAACTAACCCTTTG
As for B1, the binding result with OhrR was “binds”.
